Source: patent US6133013A, “Truncated aspartase enzyme derivatives and uses thereof” (The University of Akron, priority 1999, dated 2000)

Substrate: N[C@@H](CC(=O)O)C(=O)O
Assay: Spectrophotometric aspartase assay, deamination of L-aspartic acid to fumarate (240 nm)
Assay type: biochemical, Escherichia coli
Details: 30 mM Hepes pH 7.0, 10 mM magnesium acetate, 30° C.
Description: Catalytic activity was determined spectrophotometrically by measuring the formation of fumarate at 240 nm (E240 =2.53 mM^-1 cm^-1) produced by the enzyme-catalyzed deamination of aspartic acid. A standard assay mix contained 30 mM Hepes buffer, pH 7.0, 10 mM magnesium acetate, and varying concentrations of L-aspartic acid at 30° C.

B1: E. coli aspartase truncated variant Y467stop (stop codon at position 467) (Escherichia coli K-12; E32V) (protein)
chain: MSNNIRIEEDLLGTREVPADAYYGVHTLRAIVNFYISNNKISDIPEFVRGMVMVKKAAAMANKELQTIPKSVANAIIAACDEVLNNGKCMDQFPVDVYQGGAGTSVNMNTNEVLANIGLELMGHQKGEYQYLNPNDHVNKCQSTNDAYPTGFRIAVYSSLIKLVDAINQLREGFERKAVEFQDILKMGRTQLQDAVPMTLGQEFRAFSILLKEEVKNIQRTAELLLEVNLGATAIGTGLNTPKEYSPLAVKKLAEVTGFPCVPAEDLIEATSDCGAYVMVHGALKRLAVKMSKICNDLRLLSSGPRAGLNEINLPELQAGSSIMPAKVNPVVPEVVNQVCFKVIGNDTTVTMAAEAGQLQLNVMEPVIGQAMFESVHILTNACYNLLEKCINGITANKEVCEGYVYNSIGIVTYLNPFIGHHNGDIVGKICAETGKSVREVVLERGLLTEAELDDIFSVQNLMHPA
notes: made in house; host or cells: E. coli (aspA in pTZ18R)
Q: For B1, which Km (other: Y467stop) is on record?
A: 31 mM

Q: And the kcat (other: Y467stop)?
A: 0.0417 ± 0.013 s⁻¹

Q: And the kcat/Km (other: Y467stop)?
A: 1.33 M⁻¹ s⁻¹

B2: E. coli aspartase (L-aspartate ammonia-lyase, E.C. 4.3.1.1), wild-type, SEQ ID NO: 1 (Escherichia coli K-12) (protein)
chain: MSNNIRIEEDLLGTREVPADAYYGVHTLRAIENFYISNNKISDIPEFVRGMVMVKKAAAMANKELQTIPKSVANAIIAACDEVLNNGKCMDQFPVDVYQGGAGTSVNMNTNEVLANIGLELMGHQKGEYQYLNPNDHVNKCQSTNDAYPTGFRIAVYSSLIKLVDAINQLREGFERKAVEFQDILKMGRTQLQDAVPMTLGQEFRAFSILLKEEVKNIQRTAELLLEVNLGATAIGTGLNTPKEYSPLAVKKLAEVTGFPCVPAEDLIEATSDCGAYVMVHGALKRLAVKMSKICNDLRLLSSGPRAGLNEINLPELQAGSSIMPAKVNPVVPEVVNQVCFKVIGNDTTVTMAAEAGQLQLNVMEPVIGQAMFESVHILTNACYNLLEKCINGITANKEVCEGYVYNSIGIVTYLNPFIGHHNGDIVGKICAETGKSVREVVLERGLLTEAELDDIFSVQNLMHPAYKAKRYTDESEQ
notes: made in house; host or cells: E. coli overproducing strain (aspA in pTZ18R)
Q: B2 was tested. Which Km (other: wild-type) did it give?
A: 1.8 mM

B3: E. coli aspartase truncated variant D474stop, residues 1-473 of SEQ ID NO: 1 (Escherichia coli K-12) (protein)
chain: MSNNIRIEEDLLGTREVPADAYYGVHTLRAIENFYISNNKISDIPEFVRGMVMVKKAAAMANKELQTIPKSVANAIIAACDEVLNNGKCMDQFPVDVYQGGAGTSVNMNTNEVLANIGLELMGHQKGEYQYLNPNDHVNKCQSTNDAYPTGFRIAVYSSLIKLVDAINQLREGFERKAVEFQDILKMGRTQLQDAVPMTLGQEFRAFSILLKEEVKNIQRTAELLLEVNLGATAIGTGLNTPKEYSPLAVKKLAEVTGFPCVPAEDLIEATSDCGAYVMVHGALKRLAVKMSKICNDLRLLSSGPRAGLNEINLPELQAGSSIMPAKVNPVVPEVVNQVCFKVIGNDTTVTMAAEAGQLQLNVMEPVIGQAMFESVHILTNACYNLLEKCINGITANKEVCEGYVYNSIGIVTYLNPFIGHHNGDIVGKICAETGKSVREVVLERGLLTEAELDDIFSVQNLMHPAYKAKRYT
notes: made in house; host or cells: E. coli overproducing strain
Q: How did the Km (other: D474stop) turn out when B3 was run?
A: 2.8 mM

Q: And the kcat (other: D474stop)?
A: 0.712 ± 0.127 s⁻¹

Q: And the kcat/Km (other: D474stop)?
A: 255 M⁻¹ s⁻¹

B4: E. coli aspartase truncated variant Y472stop, residues 1-471 of SEQ ID NO: 1 (Escherichia coli K-12) (protein)
chain: MSNNIRIEEDLLGTREVPADAYYGVHTLRAIENFYISNNKISDIPEFVRGMVMVKKAAAMANKELQTIPKSVANAIIAACDEVLNNGKCMDQFPVDVYQGGAGTSVNMNTNEVLANIGLELMGHQKGEYQYLNPNDHVNKCQSTNDAYPTGFRIAVYSSLIKLVDAINQLREGFERKAVEFQDILKMGRTQLQDAVPMTLGQEFRAFSILLKEEVKNIQRTAELLLEVNLGATAIGTGLNTPKEYSPLAVKKLAEVTGFPCVPAEDLIEATSDCGAYVMVHGALKRLAVKMSKICNDLRLLSSGPRAGLNEINLPELQAGSSIMPAKVNPVVPEVVNQVCFKVIGNDTTVTMAAEAGQLQLNVMEPVIGQAMFESVHILTNACYNLLEKCINGITANKEVCEGYVYNSIGIVTYLNPFIGHHNGDIVGKICAETGKSVREVVLERGLLTEAELDDIFSVQNLMHPAYKAKR
notes: as for B3
Q: How did the Km (other: Y472stop) turn out when B4 was run?
A: 3.3 mM

Q: And the kcat (other: Y472stop)?
A: 1.62 ± 0.102 s⁻¹

Q: And the kcat/Km (other: Y472stop)?
A: 492 M⁻¹ s⁻¹

B5: E. coli aspartase truncated variant R471stop, residues 1-470 of SEQ ID NO: 1 (Escherichia coli K-12) (protein)
chain: MSNNIRIEEDLLGTREVPADAYYGVHTLRAIENFYISNNKISDIPEFVRGMVMVKKAAAMANKELQTIPKSVANAIIAACDEVLNNGKCMDQFPVDVYQGGAGTSVNMNTNEVLANIGLELMGHQKGEYQYLNPNDHVNKCQSTNDAYPTGFRIAVYSSLIKLVDAINQLREGFERKAVEFQDILKMGRTQLQDAVPMTLGQEFRAFSILLKEEVKNIQRTAELLLEVNLGATAIGTGLNTPKEYSPLAVKKLAEVTGFPCVPAEDLIEATSDCGAYVMVHGALKRLAVKMSKICNDLRLLSSGPRAGLNEINLPELQAGSSIMPAKVNPVVPEVVNQVCFKVIGNDTTVTMAAEAGQLQLNVMEPVIGQAMFESVHILTNACYNLLEKCINGITANKEVCEGYVYNSIGIVTYLNPFIGHHNGDIVGKICAETGKSVREVVLERGLLTEAELDDIFSVQNLMHPAYKAK
notes: as for B3
Q: B5 was tested. Which Km (other: R471stop) did it give?
A: 4.5 mM

Q: And the kcat (other: R471stop)?
A: 1.18 ± 0.0483 s⁻¹

Q: What about the kcat/Km (other: R471stop) of the same protein?
A: 262 M⁻¹ s⁻¹

B6: E. coli aspartase truncated variant A469stop, residues 1-468 of SEQ ID NO: 1 (Escherichia coli K-12) (protein)
chain: MSNNIRIEEDLLGTREVPADAYYGVHTLRAIENFYISNNKISDIPEFVRGMVMVKKAAAMANKELQTIPKSVANAIIAACDEVLNNGKCMDQFPVDVYQGGAGTSVNMNTNEVLANIGLELMGHQKGEYQYLNPNDHVNKCQSTNDAYPTGFRIAVYSSLIKLVDAINQLREGFERKAVEFQDILKMGRTQLQDAVPMTLGQEFRAFSILLKEEVKNIQRTAELLLEVNLGATAIGTGLNTPKEYSPLAVKKLAEVTGFPCVPAEDLIEATSDCGAYVMVHGALKRLAVKMSKICNDLRLLSSGPRAGLNEINLPELQAGSSIMPAKVNPVVPEVVNQVCFKVIGNDTTVTMAAEAGQLQLNVMEPVIGQAMFESVHILTNACYNLLEKCINGITANKEVCEGYVYNSIGIVTYLNPFIGHHNGDIVGKICAETGKSVREVVLERGLLTEAELDDIFSVQNLMHPAYK
notes: as for B3
Q: What does the source list for B6?
A: Km (other: A469stop): 10.2 mM; kcat (other: A469stop): 0.66 ± 0.0167 s⁻¹; kcat/Km (other: A469stop): 65 M⁻¹ s⁻¹
